Laboratory results published in publication PMC3795524.

What was measured:
[1] = molecular target: KNH1144 SOSIP.IEGR G-MPER gp140 (uncleaved) (HIV-1 KNH1144 (subtype A)); assay: native gel or EMSA
[2] = molecular target: KNH1144 SOSIP.IEGR G-MPER gp140 (uncleaved) (HIV-1 KNH1144 (subtype A)); assay: AUC
[3] = molecular target: KNH1144 SOSIP.R6 G-MPER gp140 (cleaved) (HIV-1 KNH1144 (subtype A)); assay: native gel or EMSA
[4] = molecular target: KNH1144 SOSIP.R6 G-MPER gp140 (cleaved) (HIV-1 KNH1144 (subtype A)); assay: AUC

Row | Substance | stoichiometry N [1] | stoichiometry N [2] | stoichiometry N [3] | stoichiometry N [4]
1 | KNH1144 SOSIP.IEGR G-MPER gp140 (uncleaved) (domain or fragment) | 3 | 3 | – | –
2 | KNH1144 SOSIP.R6 G-MPER gp140 (cleaved) (complex) | – | – | 3 | 3
